Experimental data from patent US20230158179A1 (RAYZEBIO, published 2023).
Bridge positions count the residues as written; N and C are the ends. Square brackets hold non-standard residues; d marks the D form. Phe(3-Ph) = N[C@@H](Cc1cccc(-c2ccccc2)c1)C(=O)O; Bip = N[C@@H](Cc1ccc(-c2ccccc2)cc1)C(=O)O; Phe(3-Cl) = N[C@@H](Cc1cccc(Cl)c1)C(=O)O; NMeY = CN[C@@H](Cc1ccc(O)cc1)C(=O)O; NMeF = CN[C@@H](Cc1ccccc1)C(=O)O; Cba = N[C@@H](CC1CCC1)C(=O)O; Chg = N[C@H](C(=O)O)C1CCCCC1

How the values were obtained:
[1] = biological target: T1, FOLR1 on FOLR1 expressing cells (IGROV1) (UniProt P15328 25-234, limits assumed); test: flow cytometry on IGROV1 cells in human plasma/PBS, detection with SA-647; grade legend paragraph 454: 0 nM < A <= 100 nM
T1 construct: whole, on cells; also called folate receptor 1
T1 sequence (P15328 25-234 limits assumed): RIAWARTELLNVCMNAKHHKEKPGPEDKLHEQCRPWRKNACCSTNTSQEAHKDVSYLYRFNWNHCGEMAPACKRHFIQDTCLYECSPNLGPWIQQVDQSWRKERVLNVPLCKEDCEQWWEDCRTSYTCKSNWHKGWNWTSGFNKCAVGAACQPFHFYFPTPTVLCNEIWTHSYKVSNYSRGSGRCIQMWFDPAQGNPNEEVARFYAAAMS

Human Serum Albumin = biological target: T2, Human Serum Albumin (human, UniProt P02768 25-609); test: HSA-HPLC, immobilised HSA column, estimated from retention time; grade legend paragraph 440: 90% < A <= 100%
T2 construct: Immobilised on the HPLC column; also called HSA
Text: HSA-HPLC method (measurement of drug protein binding by immobilized human serum albumin-HPLC). A 13-minute HPLC (Thermo Vanquish Horizon with Diode Array Detector) gradient method was used to determine the HSA (Human Serum Albumin) binding of novel compounds using a chemically bonded protein stationary phase (ChiralPAK HSA HPLC column, 50×4 mm). The HSA binding values were derived from the gradient retention times that were converted to the logarithm of the equilibrium constant using data from a calibration set of molecules. The % bound to plasma values for the calibrator compounds were converted to the linear free energy values using the following equation: LogK=log[% PPB/(101−% PPB)]. The logarithmic value of the gradient retention times from the experiment were plotted against the linearized values of the percent bound to plasma. The slope and the intercept were used to convert the retention times to linear free energy values (LogK), from which the estimated % protein binding was calculated using the following equation: % Binding=[(101·10^LogK)/(1+10^LogK)]. Aqueous mobile phase (A) was 50 mM ammonium acetate solution, ph7.4 and the organic mobile phase (B) was 2-propanol. The flow rate was set at 0.350mL/min and injection volume was 5 uL, with samples prepared at 0.5 mg/mL concentration in 50:50 mobile phase. The initial LC conditions were conducted at room temperature, set at 0% B and ramped to 50% B over 8.5 minutes, then held at 50% B for 1.5 minutes before going back to initial conditions and re-equilibrating the column for 2.5 minutes. Chromatograms were recorded at 280 nm by a diode array UV absorption detector.

[2] = biological target: T3, FOLR1-Fc-Avi (AcroBiosystems, F01-H82F9) (UniProt P15328 25-234, biotinylated (immobilised by streptavidin-biotin chemistry)); test: SPR, Biacore 8K, FOLR1-Fc-Avi immobilised, single cycle kinetics, 1:1 model; grade legend paragraph 444: 0 nM < A <= 10 nM
T3 construct: Bought reagent; also called folate receptor 1
T3 sequence (P15328 25-234 limits assumed): as above
Description: For analysis of peptide binding, a Biacore 8K instrument was used utilizing either a SA chip or a CAP chip. FOLR1-Fc-Avi (AcroBiosystems, F01-H₈₂F9) was immobilized on the chip using streptavidin-biotin chemistry at 25° C. in PBS-P+ buffer (20 mM phosphate, 2.7 mM KCl, 137 mM NaCl, 0.05% Tween-20, pH 7.4) to a level of 500-2500 RU (dependent on the analyte molecular weight). A dilution series of peptides was prepared in this buffer with a final DMSO concentration of 1% with a top peptide concentration at 50 or 100 nM and 8 further 2-fold dilutions. The SPR analysis was run at 25° C. at a flow rate of 100 μL/min in PBS-P+ with 1% DMSO running buffer and with a 120 second association and 10,000 second dissociation using single cycle kinetics methodology. All data was analyzed using Biacore Insight Evaluation Software version 3.) Data was fitted using a Langmuir 1:1 binding model.

[3] = biological target: T4, PSMA on PSMA expressing cells (LnCap) (UniProt Q04609 1-750, limits assumed); test: flow cytometry on LnCap cells, biotinylated compound, detection with SA-A647; grade legend paragraph 460: 0 nM < A <= 100 nM
T4 construct: whole, on cells; also called prostate-specific membrane antigen
T4 sequence (Q04609 whole entry): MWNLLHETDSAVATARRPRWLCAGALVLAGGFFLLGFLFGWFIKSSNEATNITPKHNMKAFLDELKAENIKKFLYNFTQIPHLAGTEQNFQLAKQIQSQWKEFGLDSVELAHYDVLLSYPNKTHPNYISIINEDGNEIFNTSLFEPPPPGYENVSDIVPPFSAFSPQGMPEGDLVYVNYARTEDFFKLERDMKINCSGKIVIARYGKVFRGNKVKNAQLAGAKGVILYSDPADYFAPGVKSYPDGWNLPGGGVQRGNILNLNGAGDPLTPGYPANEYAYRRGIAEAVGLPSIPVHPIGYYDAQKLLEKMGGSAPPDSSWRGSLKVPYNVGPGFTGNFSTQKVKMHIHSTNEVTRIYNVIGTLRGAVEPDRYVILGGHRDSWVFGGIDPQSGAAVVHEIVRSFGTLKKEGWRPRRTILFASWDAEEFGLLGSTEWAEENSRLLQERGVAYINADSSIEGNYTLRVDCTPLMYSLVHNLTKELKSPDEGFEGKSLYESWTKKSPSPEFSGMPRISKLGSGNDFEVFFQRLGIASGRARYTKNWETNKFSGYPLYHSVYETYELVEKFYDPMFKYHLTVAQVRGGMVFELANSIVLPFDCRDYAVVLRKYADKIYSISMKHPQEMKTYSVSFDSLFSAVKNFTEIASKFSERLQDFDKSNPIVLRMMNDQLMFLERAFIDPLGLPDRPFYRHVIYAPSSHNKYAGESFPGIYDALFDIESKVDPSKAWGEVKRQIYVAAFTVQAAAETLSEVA

[4] = biological target: T5, His-Avi-PSMA (AcroBiosystems, PSA-H82Qb) (UniProt Q04609 44-750, biotinylated (immobilised by streptavidin-biotin chemistry)); test: SPR, Biacore 8K, His-Avi-PSMA immobilised, single cycle kinetics, 1:1 model; grade legend paragraph 447: 0 nM < A <= 10 nM
T5 construct: Bought reagent; also called prostate-specific membrane antigen
T5 sequence (Q04609 44-750 limits assumed): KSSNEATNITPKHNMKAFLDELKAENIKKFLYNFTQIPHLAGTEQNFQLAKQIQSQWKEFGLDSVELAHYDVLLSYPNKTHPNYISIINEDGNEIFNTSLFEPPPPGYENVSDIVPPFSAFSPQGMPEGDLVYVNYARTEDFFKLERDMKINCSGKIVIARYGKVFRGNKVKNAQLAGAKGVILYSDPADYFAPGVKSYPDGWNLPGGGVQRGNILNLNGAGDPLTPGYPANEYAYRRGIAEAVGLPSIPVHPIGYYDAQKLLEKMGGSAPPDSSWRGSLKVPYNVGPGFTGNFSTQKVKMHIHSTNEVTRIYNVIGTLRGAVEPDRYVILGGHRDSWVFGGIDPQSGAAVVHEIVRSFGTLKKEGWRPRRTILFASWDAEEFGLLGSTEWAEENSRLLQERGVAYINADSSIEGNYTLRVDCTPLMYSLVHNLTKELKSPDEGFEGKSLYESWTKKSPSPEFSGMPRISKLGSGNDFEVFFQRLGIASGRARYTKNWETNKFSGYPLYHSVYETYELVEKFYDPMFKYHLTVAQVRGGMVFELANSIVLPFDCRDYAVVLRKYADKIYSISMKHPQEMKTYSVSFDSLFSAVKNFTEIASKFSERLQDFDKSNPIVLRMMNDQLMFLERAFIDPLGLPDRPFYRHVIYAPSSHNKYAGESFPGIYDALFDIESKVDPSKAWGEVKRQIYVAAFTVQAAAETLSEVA
Description: For analysis of peptide binding, a Biacore 8K instrument was used utilizing a SA chip. His-Avi-PSMA (AcroBiosystems, PSA-H82Qb) was immobilized on the chip using streptavidin-biotin chemistry at 25° C. in HBS-P+ buffer (10 mM HEPES, 150 mM NaCl, 0.05% Tween-20, pH 7.4) to a level of 800-2200 RU (dependent on the analyte molecular weight). A dilution series of peptides was prepared in this buffer with a final DMSO concentration of 1% with a top peptide concentration between 10-100 nM and 8 further 2-fold dilutions. The SPR analysis was run at 25° C. at a flow rate of 100 μL/min in HBS-P+ with 1% DMSO running buffer and with a 120 second association and 10,000 second dissociation using single cycle kinetics methodology. All data was analyzed using Biacore Insight Evaluation Software version 3. Data was fitted using a Langmuir 1:1 binding model.

[5] = biological target: T6, Trop-2 on Trop-2 expressing cells (A431) (UniProt P09758 27-323, limits assumed); test: flow cytometry on A431 cells, procedure of the PSMA cell assay; grade legend paragraph 462: 0 nM < A <= 100 nM
T6 construct: whole, on cells; also called tumor-associated calcium signal transducer 2
T6 sequence (looked up): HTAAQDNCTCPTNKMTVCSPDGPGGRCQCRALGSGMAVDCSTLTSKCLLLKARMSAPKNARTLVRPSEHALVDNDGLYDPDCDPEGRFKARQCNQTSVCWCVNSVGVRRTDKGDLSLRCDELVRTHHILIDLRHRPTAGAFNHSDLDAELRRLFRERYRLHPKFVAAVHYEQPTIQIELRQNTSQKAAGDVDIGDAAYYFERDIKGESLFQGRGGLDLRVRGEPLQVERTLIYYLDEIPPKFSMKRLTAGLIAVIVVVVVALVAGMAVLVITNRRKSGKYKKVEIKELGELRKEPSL

B1: P-10 (peptide)
peptide: ARL[NMeF]DYDT[NMeY][NMeY]WYC-NH2
modifications: bridge N-13; not fully specified (N-terminus, bridges)
notes: The cell assay detects with SA-647, so a biotinylated form was used
- EC50 [1]: ≤ 100 nM
- % Bound to HSA at r.t. (Human Serum Albumin): > 90%
- Kd [2]: ≤ 10 nM

B2: P-11 (peptide)
peptide: DR[Chg][NMeF]D[Phe(3-Cl)]DT[NMeY][NMeY]WYC-NH2
modifications: bridge N-13; not fully specified (N-terminus, bridges)
notes: as for B1
- EC50 [1]: ≤ 100 nM
- % Bound to HSA at r.t. (Human Serum Albumin): > 90%
- Kd [2]: ≤ 10 nM

Binder: DR[Chg][NMeF]DYDT[NMeY][NMeY]WYC-NH2 (bridge N-13; not fully specified (N-terminus, bridges)) [P-12]
- % Bound to HSA at r.t. (Human Serum Albumin): > 90%
- Kd [2]: ≤ 10 nM

Binder: W[Phe(3-Ph)]DVDSD[Cba]W[Phe(3-Ph)]DC-NH2 (bridge N-12; not fully specified (N-terminus, bridges)) [P-21]
- EC50 [3]: ≤ 100 nM
- % Bound to HSA at r.t. (Human Serum Albumin): > 90%
- Kd [4]: ≤ 10 nM

B3: P-40 (peptide)
peptide: [dA]D[Bip]IYPA[Bip]SSES[NMeF]C-NH2
modifications: bridge N-14; not fully specified (N-terminus, bridges)
notes: The cell assay followed the procedure with biotinylated compounds
- % Bound to HSA at r.t. (Human Serum Albumin): > 90%
- EC50 [5]: ≤ 100 nM
